Laboratory results from US20240182596A1 (TUBULIS, published 2024).

Experiments:
[1] = target: T1, human Napi2c-mCherry on HEK293 cells (human, UniProt Q8N130 1-599); experiment: flow cytometry on HEK293 cells expressing human Napi2c-mCherry (panel Napi2c-HEK293), MFI ratio to the non-specific binding control
T1 construct: whole, on cells; also called Napi2c (SLC34A3); not shown: mCherry fusion
T1 sequence (looked up): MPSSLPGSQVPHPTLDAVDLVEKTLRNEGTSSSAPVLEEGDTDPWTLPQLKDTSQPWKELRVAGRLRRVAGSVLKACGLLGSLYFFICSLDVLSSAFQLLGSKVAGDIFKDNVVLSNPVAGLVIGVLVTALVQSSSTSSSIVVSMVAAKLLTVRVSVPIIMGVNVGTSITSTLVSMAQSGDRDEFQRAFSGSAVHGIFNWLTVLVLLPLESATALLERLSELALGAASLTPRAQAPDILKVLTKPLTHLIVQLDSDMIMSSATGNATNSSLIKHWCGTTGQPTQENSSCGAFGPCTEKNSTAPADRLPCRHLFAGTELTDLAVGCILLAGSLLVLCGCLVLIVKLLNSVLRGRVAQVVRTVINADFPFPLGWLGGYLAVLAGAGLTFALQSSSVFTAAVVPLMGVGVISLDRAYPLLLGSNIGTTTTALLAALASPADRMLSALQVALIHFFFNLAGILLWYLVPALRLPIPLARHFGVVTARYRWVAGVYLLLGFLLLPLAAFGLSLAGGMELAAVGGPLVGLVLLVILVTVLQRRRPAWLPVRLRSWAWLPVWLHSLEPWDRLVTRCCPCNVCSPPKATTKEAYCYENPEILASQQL

[2] = target: T2, human Napi2b-mCherry on HEK293 cells (human, UniProt O95436 1-690); experiment: flow cytometry on HEK293 cells expressing human Napi2b-mCherry (panel Napi2b-HEK293), Alexa-dye anti-human IgG H+L secondary antibody, MFI ratio to the non-specific binding control
T2 construct: also called Napi2b (SLC34A2); HEK293 cells overexpressing Napi2b
T2 sequence: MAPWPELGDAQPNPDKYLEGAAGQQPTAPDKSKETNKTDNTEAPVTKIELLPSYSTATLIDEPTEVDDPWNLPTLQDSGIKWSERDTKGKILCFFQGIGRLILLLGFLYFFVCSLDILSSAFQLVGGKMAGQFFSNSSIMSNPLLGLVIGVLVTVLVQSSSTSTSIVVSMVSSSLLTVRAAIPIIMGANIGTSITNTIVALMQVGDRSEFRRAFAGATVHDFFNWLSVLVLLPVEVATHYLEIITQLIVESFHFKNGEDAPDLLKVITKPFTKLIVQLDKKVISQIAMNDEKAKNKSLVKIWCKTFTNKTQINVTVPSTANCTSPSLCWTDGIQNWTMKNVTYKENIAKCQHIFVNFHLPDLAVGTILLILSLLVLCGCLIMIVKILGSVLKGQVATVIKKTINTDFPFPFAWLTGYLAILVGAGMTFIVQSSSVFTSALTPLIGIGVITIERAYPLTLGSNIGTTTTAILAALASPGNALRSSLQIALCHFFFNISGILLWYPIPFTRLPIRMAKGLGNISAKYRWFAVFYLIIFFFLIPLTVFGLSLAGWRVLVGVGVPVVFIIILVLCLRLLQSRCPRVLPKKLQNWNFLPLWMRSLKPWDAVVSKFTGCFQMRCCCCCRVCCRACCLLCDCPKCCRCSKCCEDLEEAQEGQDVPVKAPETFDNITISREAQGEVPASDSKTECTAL
Protocol: To determine concentration-dependent binding, HEK293 cells transiently or stably expressing human Napi2a-, Napi2b- and Napi2c-mCherry were incubated with antibodies or ADCs in concentrations ranging from 0.002 to 200 nM, stained with an Alexa-dye-labeled anti-human IgG H+L secondary antibody (Thermo Fisher Scientific), and analyzed by flow cytometry. Mean fluorescence intensity (MFI) ratios were normalized to the non-specific binding control. The assay was performed in duplicates and data points were analyzed by a non-linear regression using a one-site specific binding model using Prism 9 software.

[3] = target: T3, purified recombinant human Napi2b antigen consisting of Napi2b-extracellular-loop2 expressed as … (human, UniProt O95436 234-362, limits assumed); experiment: ELISA, coated Napi2b-extracellular-loop2-Fc-6-His, apparent KD from one-site fit
T3 construct: Expressed in Expi-HEK293 cells; also called immobilized human NaPi2B; not shown: Fc part; 6-His tag
T3 sequence: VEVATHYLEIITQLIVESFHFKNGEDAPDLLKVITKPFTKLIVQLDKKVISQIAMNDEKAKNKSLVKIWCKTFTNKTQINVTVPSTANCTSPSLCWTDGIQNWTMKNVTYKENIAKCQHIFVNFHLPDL

[4] = target: T4, human Napi2a-mCherry on HEK293 cells (human, UniProt Q06495 1-639); experiment: flow cytometry on HEK293 cells expressing human Napi2a-mCherry (panel Napi2a-HEK293), MFI ratio to the non-specific binding control
T4 construct: whole, on cells; also called Napi2a (SLC34A1); not shown: mCherry fusion
T4 sequence (looked up): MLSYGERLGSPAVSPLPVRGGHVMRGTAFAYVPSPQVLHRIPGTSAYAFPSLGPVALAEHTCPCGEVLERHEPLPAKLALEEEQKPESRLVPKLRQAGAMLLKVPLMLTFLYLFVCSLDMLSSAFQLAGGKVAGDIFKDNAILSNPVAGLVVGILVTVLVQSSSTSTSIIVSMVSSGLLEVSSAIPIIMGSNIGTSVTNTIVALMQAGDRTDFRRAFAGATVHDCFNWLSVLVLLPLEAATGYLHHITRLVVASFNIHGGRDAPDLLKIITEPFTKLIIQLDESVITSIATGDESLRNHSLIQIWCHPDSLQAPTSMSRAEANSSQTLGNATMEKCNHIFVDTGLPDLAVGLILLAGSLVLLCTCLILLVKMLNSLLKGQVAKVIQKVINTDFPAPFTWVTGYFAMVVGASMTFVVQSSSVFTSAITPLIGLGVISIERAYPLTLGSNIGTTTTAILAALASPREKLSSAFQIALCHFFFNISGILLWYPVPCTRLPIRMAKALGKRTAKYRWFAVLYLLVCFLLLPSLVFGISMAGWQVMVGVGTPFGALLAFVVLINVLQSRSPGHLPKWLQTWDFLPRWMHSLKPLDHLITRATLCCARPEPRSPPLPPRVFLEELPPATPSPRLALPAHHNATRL

[5] = target: T5, human NaPi2b on NaPi2b-positive cell lines OVCAR-3 and HCC-78 (human, UniProt O95436 1-690); experiment: flow cytometry on NaPi2b-positive HCC-78 cells, Alexa-dye-labeled anti-human IgG H+L secondary antibody, MFI ratio normalized to the non-specific binding control
T5 construct: Endogenous protein
T5 sequence: T2 sequence
Protocol: To determine concentration-dependent binding, NaPi2b-positive OVCAR-3 and HCC-78 were incubated with antibodies in concentrations ranging from 0.00075 to 30 μg/ml, stained with an Alexa-dye-labeled anti-human IgG H+L secondary antibody (Thermo Fisher Scientific), and analyzed by flow cytometry. Mean fluorescence intensity (MFI) ratios were normalized to the non-specific binding control. The assay was performed in duplicates and data points were analyzed by a non-linear regression using a one-site specific binding model using Prism 9 software.

[6] = target: T6, FcγRIIIa (CD16) (F158) (Homo sapiens, UniProt P08637); experiment: Lumit FcγRIIIa (F158) Binding Immunoassay (Promega), right panel FcγRIIIa (CD16) (F158), competition with Tracer-LgBiT for FcγR-SmBiT, falling luminescence means binding, n=1
T6 construct: m21 joins both polymorphic variants; also called F158 variant of m21
T6 sequence (P08637 17-208 limits assumed): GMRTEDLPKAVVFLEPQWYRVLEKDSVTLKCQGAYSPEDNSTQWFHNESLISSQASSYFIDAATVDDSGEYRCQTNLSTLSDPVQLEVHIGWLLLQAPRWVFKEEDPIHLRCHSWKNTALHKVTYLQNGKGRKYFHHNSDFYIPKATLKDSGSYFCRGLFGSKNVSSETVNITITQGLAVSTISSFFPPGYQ
Protocol: Luminescence is measured on a microplate reader Infinite M200 Pro (Tecan). Graphs show n=1.
Luminescence was measured on a microplate reader Infinite M200 Pro (Tecan). Graphs show n=1.

- binding result [1]: no binding (tested: 200 nM)
- EC50 (read off the curve) [2]: ~0.7 nM
- Kd [3]: 0.0106 mg/L
- binding result [4]: no binding (tested: 200 nM)
- EC50 (read off the curve) [5]: ~0.4 mg/L
- binding result [6]: binds
B1: AV25 mAb, LALA-silenced (AV25 HC-LALA) (antibody, human IgG1, kappa, L234A L235A)
heavy: not shown
light: DIQMTQSPSSLSASVGDRVTITCSASQDIGNFLNWYQQKPGKTVKVLIYYASSLYSGVPSRFSGSGSGTDYTLTISSLQPEDFATYYCQQYSKLPLTFGQGTKLELKRTVAAPSVFIFPPSDEQLKSGTASVVCLLNNFYPREAKVQWKVDNALQSGNSQESVTEQDSKDSTYSLSSTLTLSKADYEKHKVYACEVTHQGLSSPVTKSFNRGEC
notes: also called unmodified AV25 mAb
